Biological target: cardiac troponin I (CTNI) (UniProt P19429 2-210)
Assay: pull-down with anti-CTNI antibody magnetic beads, supernatant fluorescence; 2 uM aptamer (10 uL), 10 uM CTNI (100 uL); fluorescence about 1400 to 1050 A.U.; PBS pH 7.4 washes; binding buffer not stated; room temperature 2 h (solution pull-down); 30 min bead reaction on sensor
Conditions: protein: commercial; label: 3'-6-FAM

cardiac troponin I (CTNI), sequence (P19429 2-210): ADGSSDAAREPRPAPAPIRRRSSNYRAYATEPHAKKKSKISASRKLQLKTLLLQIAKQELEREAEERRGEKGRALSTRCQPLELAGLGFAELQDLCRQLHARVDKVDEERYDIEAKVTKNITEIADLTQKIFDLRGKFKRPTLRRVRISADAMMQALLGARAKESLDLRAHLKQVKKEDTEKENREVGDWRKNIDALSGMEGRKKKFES

Binder: CGTGCAGTACGCCAACCTTTCTCATGCGCTGCCCCTCTTA (ssDNA, 5'-NH2) [CTNI aptamer]
- binding result: binds
